{
  "source": "paper PMC7972811",
  "about": "(Cell Reports, 2021)",
  "binders": {"B1": {"name": "H4 Fab (Fab, V domains shown)", "VH": "not shown", "VL": "DIQMTQSPLSLPVTPGEPASISCRSSQSLLDSDDGNTYLDWYLQKPGQSPQLLIYTLSYRASGVPDRFSGSGSGTDFTLKISRVEAEDVGVYYCMQRIEFPLTFGGGTKVEIK"}, "B2": {"name": "2-43 IgG with the paratope somatic hypermutation S76T (heavy chain) reverted to germline (antibody, V domains shown)", "VH": "not shown", "VL": "QSALTQPASVSGSPGQSITISCTGTSSDVGGYNYVSWYQQHPGKAPKLMIYDVSKRPSGVSNRFSGSKSGNTASLTISGLQAEDEGDYYCSSYTSSSTWVFGGGTKLTVL"}, "B3": {"name": "2-43 Fab (Fab, V domains shown)", "VH": "not shown", "VL": "B2 VL"}, "B4": {"name": "2-15 IgG with the paratope somatic hypermutation N53I (heavy chain) reverted to germline (antibody, V domains shown)", "VH": "QVQLVQSGAEVKKPGASVRVSCKASGYTFTGYYMHWVRQAPGQGLEWMGWINPNSDGTNYAQKFQGWVTMTRDTSISTVYMELSRLRSDDTAVYYCARGGSRCSGGNCYGWAYDAFDIWGQGTMITVSS", "VL": "B2 VL with Y34F, G86A, Y88C, W99F, G103T, L107V"}, "B5": {"name": "2-15 Fab (Fab, V domains shown)", "VH": "B4 VH with N54I", "VL": "B2 VL with Y34F, G86A, Y88C, W99F, G103T, L107V"}, "B6": {"name": "2-4 IgG with the somatic hypermutation A60T (heavy chain) reverted to germline (antibody, V domains shown)", "VH": "not shown", "VL": "QSALTQPPSASGSPGQSVTISCTGTSSDVGGYNYVSWYQQHPGKAPKLMIYEVSKRPSGVPDRFSGSKSGNTASLTVSGLQAEDEADYYCSSYAGSNNLVFGGGTKLTVL"}},
  "key": {"[1]": {"target": "T1, SARS-CoV-2 spike S2P (ectodomain of the SARS-CoV-2 S trimer) (SARS-CoV-2, ancestral (P0DTC2 sequence), stabilised)", "test": "cryo-EM structure"}, "[2]": {"target": "T1, SARS-CoV-2 spike S2P (ectodomain of the …)", "test": "SPR"}, "[3]": {"target": "T1, SARS-CoV-2 spike S2P (ectodomain of the …)", "test": "cell-based or functional assay"}, "[4]": {"target": "T1, SARS-CoV-2 spike S2P (ectodomain of the …)", "test": "cryo-EM structure", "remark": "listed apart in the source"}, "[5]": {"target": "T1, SARS-CoV-2 spike S2P (ectodomain of the …)", "test": "cryo-EM structure", "remark": "listed apart in the source"}},
  "note": "Where a chain is given by its changes, count along the chain named. Numbers in names are those of the source. Like-named read-outs stand apart in the source and are kept apart here.",
  "data": [
    {"binder": "B1", "values": [
      {"measurement": "stoichiometry N", "setting": "[1]", "result": 1, "unit": "Fab per spike trimer"}
    ]},
    {"binder": "B2", "values": [
      {"measurement": "fold reduction of IgG-apparent binding affinity against 2-43 IgG", "setting": "[2]", "result": "~6", "unit": "fold"},
      {"measurement": "pseudovirus neutralization potency, fold reduction against 2-43 IgG", "setting": "[3]", "result": "~5", "unit": "fold"}
    ]},
    {"binder": "B3", "values": [
      {"measurement": "stoichiometry N", "setting": "[4]", "result": 3, "unit": "Fab per spike trimer"},
      {"measurement": "neutralization potency of the Fab, fold less than its IgG form", "setting": "[3]", "result": "~140", "unit": "fold"}
    ]},
    {"binder": "B4", "values": [
      {"measurement": "fold reduction of binding affinity against 2-15 IgG", "setting": "[2]", "result": 56, "unit": "fold"},
      {"measurement": "pseudovirus neutralization potency, fold reduction against 2-15 IgG", "setting": "[3]", "result": 217, "unit": "fold"}
    ]},
    {"binder": "B5", "values": [
      {"measurement": "neutralization potency of the Fab, fold less than its IgG form", "setting": "[3]", "result": "~95", "unit": "fold"},
      {"measurement": "stoichiometry N", "setting": "[5]", "result": 1, "unit": "Fab per spike trimer"}
    ]},
    {"binder": "B6", "values": [
      {"measurement": "fold reduction of binding affinity against 2-4 IgG", "setting": "[2]", "result": "~6", "unit": "fold"},
      {"measurement": "pseudovirus neutralization, fold reduction against 2-4 IgG", "setting": "[3]", "result": "~9", "unit": "fold"}
    ]}
  ]
}
